Data: paper PMC12709181

Legend:
[1] = target: proliferating cell nuclear antigen (PCNA) (yeast) (UniProt P15873)
[2] = target: proliferating cell nuclear antigen (PCNA) (yeast) (UniProt P15873); remark: listed apart in the source

Chain of proliferating cell nuclear antigen (PCNA) (yeast) (P15873 whole entry): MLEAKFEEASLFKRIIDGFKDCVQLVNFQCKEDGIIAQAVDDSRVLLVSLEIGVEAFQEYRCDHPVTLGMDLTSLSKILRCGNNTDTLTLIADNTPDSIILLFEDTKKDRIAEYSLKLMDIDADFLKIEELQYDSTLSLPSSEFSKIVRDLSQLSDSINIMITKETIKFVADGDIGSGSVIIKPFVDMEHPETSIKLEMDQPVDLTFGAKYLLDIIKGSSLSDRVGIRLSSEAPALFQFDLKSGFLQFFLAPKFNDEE

four-subunit yeast Pol ε with the P-domain mutation KKRL736-739AAAA in Pol2 (P3) (from UniProt P21951 1-2222; P24482 1-689; P27344 1-201; Q04603 1-196) (complex)
holoenzyme assay: product length of DNA synthesis on single-primed M13mp18 ssDNA with PCNA loaded by RFC (10 and 20 min); much less stimulation by PCNA [1]: 400 bp | processivity assay under single-hit conditions: product length on primed M13mp18 ssDNA upon addition of PCNA (0, 5, 10, 20 min) [2]: 85 nts

four-subunit yeast Pol ε with the P-domain mutations D695A, E696A, N698A, K745A in Pol2 (DENK) (from UniProt P21951 1-2222; P24482 1-689; P27344 1-201; Q04603 1-196) (complex)
holoenzyme assay: product length of DNA synthesis on single-primed M13mp18 ssDNA with PCNA loaded by RFC (10 and 20 min); stimulated by PCNA, although to a lesser extent than wild-type Pol ε [1]: 3000 bp | processivity assay under single-hit conditions: product length on primed M13mp18 ssDNA upon addition of PCNA (0, 5, 10, 20 min); increase comparable to wild type [2]: 300 nts

wild-type four-subunit yeast DNA polymerase ε (Pol2, Dpb2, Dpb3, Dpb4) (from UniProt P21951 1-2222; P24482 1-689; P27344 1-201; Q04603 1-196) (complex)
processivity assay under single-hit conditions: product length on primed M13mp18 ssDNA upon addition of PCNA (0, 5, 10, 20 min) [2]: 300 nts
